From IntAct's records for PubMed 26235031

B1: Adhesion G protein-coupled receptor L3 (Mus musculus), Q80TS3 (parent)
chain: MWPPQLLILTMLLAPVVHGGKHNERHPALAAPLRHAERSPGGALPPRHLLQQPAAERSTAHRGQGPRGAARGVRGPGAPGAQIAAQAFSRAPIPMAVVRRELSCESYPIELRCPGTDVIMIESANYGRTDDKICDSDPAQMENIRCYLPDAYKIMSQRCNNRTQCAVVAGPDVFPDPCPGTYKYLEVQYECVPYKVEQKVFLCPGLLKGVYQSEHLFESDHQSGAWCKDPLQASDKIYYMPWTPYRTDTLTEYSSKDDFIAGRPTTTYKLPHRVDGTGFVVYDGALFFNKERTRNIVKFDLRTRIKSGEAIIANANYHDTSPYRWGGKSDIDLAVDENGLWVIYATEQNNGKIVISQLNPYTLRIEGTWDTAYDKRSASNAFMICGILYVVKSVYEDDDNEATGNKIDYIYNTDQSKDSLVDVPFPNSYQYIAAVDYNPRDNLLYVWNNYHVVKYSLDFGPLDSRSGPVHHGQVSYISPPIHLDSELERPPVRGISTTGSLGMGSTTTSTTLRTTTWNIGRSTTASLPGRRNRSTSTPSPAVEVLDDVTTHLPSAASQIPAMEESCEAVEAREIMWFKTRQGQVAKQPCPAGTIGVSTYLCLAPDGIWDPQGPDLSNCSSPWVNHITQKLKSGETAANIARELAEQTRNHLNAGDITYSVRAMDQLVGLLDVQLRNLTPGGKDSAARSLNKLQKRERSCRAYVQAMVETVNNLLQPQALNAWRDLTTSDQLRAATMLLDTVEESAFVLADNLLKTDIVRENTDNIQLEVARLSTEGNLEDLKFPENMGHGSTIQLSANTLKQNGRNGEIRVAFVLYNNLGPYLSTENASMKLGTEAMSTNHSVIVNSPVITAAINKEFSNKVYLADPVVFTVKHIKQSEENFNPNCSFWSYSKRTMTGYWSTQGCRLLTTNKTHTTCSCNHLTNFAVLMAHVEVKHSDAVHDLLLDVITWVGILLSLVCLLICIFTFCFFRGLQSDRNTIHKNLCISLFVAELLFLIGINRTDQPIACAVFAALLHFFFLAAFTWMFLEGVQLYIMLVEVFESEHSRRKYFYLVGYGMPALIVAVSAAVDYRSYGTDKVCWLRLDTYFIWSFIGPATLIIMLNVIFLGIALYKMFHHTAILKPESGCLDNINYEDNRPFIKSWVIGAIALLCLLGLTWAFGLMYINESTVIMAYLFTIFNSLQGMFIFIFHCVLQKKVRKEYGKCLRTHCCSGKSTESSIGSGKTSGSRTPGRYSTGSQSRIRRMWNDTVRKQSESSFITGDINSSASLNREGLLNNARDTSVMDTLPLNGNHGNSYSIAGGEYLSNCVQIIDRGYNHNETALEKKILKELTSNYIPSYLNNHERSSEQNRNMMNKLVNNLGSGSEDDAIVLDDAASFNHEESLGLELIHEESDAPLLPPRVYSTDNHQPHHYSRRRFPQDHSESFFPLLTDEHTEDLQSPHRDSLYTSMPALAGVPAADSVTTSTQTEAAAAKGGDAEDVYYKSMPNLGSRNHVHPLHAYYQLGRGSSDGFIVPPNKDGASPEGTSKGPAHLVTSL
partner: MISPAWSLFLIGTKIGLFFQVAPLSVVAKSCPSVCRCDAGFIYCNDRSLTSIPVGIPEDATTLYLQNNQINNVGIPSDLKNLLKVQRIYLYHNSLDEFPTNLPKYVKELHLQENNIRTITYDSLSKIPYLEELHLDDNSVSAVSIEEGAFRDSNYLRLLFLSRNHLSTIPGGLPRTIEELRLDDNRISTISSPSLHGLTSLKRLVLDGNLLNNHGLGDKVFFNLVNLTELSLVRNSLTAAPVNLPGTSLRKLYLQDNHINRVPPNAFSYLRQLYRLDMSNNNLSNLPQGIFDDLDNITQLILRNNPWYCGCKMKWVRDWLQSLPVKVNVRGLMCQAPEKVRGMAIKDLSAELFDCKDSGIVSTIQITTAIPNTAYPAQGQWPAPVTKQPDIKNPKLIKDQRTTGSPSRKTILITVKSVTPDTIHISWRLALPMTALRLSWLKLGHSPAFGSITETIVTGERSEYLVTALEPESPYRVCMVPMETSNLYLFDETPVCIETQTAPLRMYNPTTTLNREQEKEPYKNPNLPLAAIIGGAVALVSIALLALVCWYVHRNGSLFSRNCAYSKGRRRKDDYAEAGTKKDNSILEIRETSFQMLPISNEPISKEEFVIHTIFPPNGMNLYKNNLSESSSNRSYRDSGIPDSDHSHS
B2: Leucine-rich repeat transmembrane protein FLRT3 (Mus musculus), Q8BGT1 (parent)
chain: B1 partner

Variants of: B1
Details: with flrt3_mouse Flrt3, Q8BGT1

| effect of a mutation on the interaction | Variant |
| --- | --- |
| decreasing interaction strength | D332A |
| disrupting interaction strength | Y323A |

Variants of: B2
Details: with agrl3_mouse Adgrl3, Q80TS3

| effect of a mutation on the interaction | Variant |
| --- | --- |
| decreasing interaction strength | F160A |
| disrupting interaction strength | F160N |
| decreasing interaction strength | R117T |
